Laboratory results reported in patent US7803758B2, “I kappa B kinase complex as a target for the treatment of Huntington's disease” (California Institute of Technology, priority 2004, dated 2010).

T1: IKKβ subunit (Homo sapiens, UniProt O14920)
T1 sequence (O14920 1-756): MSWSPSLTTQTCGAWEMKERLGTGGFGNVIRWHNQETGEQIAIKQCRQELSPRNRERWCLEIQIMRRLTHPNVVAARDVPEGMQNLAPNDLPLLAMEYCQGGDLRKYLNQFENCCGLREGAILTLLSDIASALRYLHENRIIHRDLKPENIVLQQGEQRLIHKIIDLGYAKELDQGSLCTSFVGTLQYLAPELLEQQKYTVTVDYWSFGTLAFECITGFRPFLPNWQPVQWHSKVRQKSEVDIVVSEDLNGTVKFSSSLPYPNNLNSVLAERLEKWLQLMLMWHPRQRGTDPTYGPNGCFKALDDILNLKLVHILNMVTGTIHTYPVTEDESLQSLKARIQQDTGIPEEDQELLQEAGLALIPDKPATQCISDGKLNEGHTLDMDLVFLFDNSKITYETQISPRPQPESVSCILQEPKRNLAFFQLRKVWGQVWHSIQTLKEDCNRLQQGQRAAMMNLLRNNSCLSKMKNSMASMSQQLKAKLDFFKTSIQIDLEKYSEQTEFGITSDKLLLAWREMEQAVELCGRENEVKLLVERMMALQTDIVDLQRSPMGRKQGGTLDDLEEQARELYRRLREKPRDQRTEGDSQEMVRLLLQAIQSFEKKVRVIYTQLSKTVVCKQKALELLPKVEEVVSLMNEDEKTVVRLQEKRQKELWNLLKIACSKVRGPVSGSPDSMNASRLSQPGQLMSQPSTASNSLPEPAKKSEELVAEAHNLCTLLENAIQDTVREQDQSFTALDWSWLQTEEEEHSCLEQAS

B1: DN-IKKγ: IKKγ with the first 134 amino acids removed; N-terminally truncated form that interferes with IKK activity (protein, UniProt Q9Y6K9 135-419, looked up, fragment)
chain: MAEDKASVKAQVTSLLGELQESQSRLEAATKECQALEGRARAASEQARQLESEREALQQQHSVQVDQLRMQGQSVEAALRMERQAASEEKRKLAQLQVAYHQLFQEYDNHIKSSVVGSERKRGMQLEDLKQQLQQAEEALVAKQEVIDKLKEEAEQHKIVMETVPVLKAQADIYKADFQAERQAREKLAEKKELLQEQLEQLQREYSKLKASCQESARIEDMRKRHVEVSQAPLPPAPAYLSSPLALPSQRRSPPEEPPDFCCPKCQYQAPDMDTLQIHVMECIE

How the values were obtained:
IKKβ subunit = biological target: T1, IKKβ subunit; details: Ogino et al., Mol. Pharmacol. 2004; cited from earlier work
[1] = tested on: NF-κB-dependent gene expression; experiment: NF-κB luciferase gene reporter assay in inducible PC12 cells expressing mutant HDx1; assay type: cell-based
Excerpt: Gene Reporter and transfections. The pNF-κB-luciferase with five enhanced elements and the control plasmid without NF-κB binding sites, pCIS-CK luciferase, were used for gene reporter assays (Strategene, La Jolla, Calif.). To normalize for transfection efficiency between samples, a β-galactosidase (β-gal) construct expressed from the EF-1α promoter (Invitrogen, Carlsbad, Calif.), was included in all gene reporter assays. PC12 cells were transfected with control or NF-κB-luciferase plasmids using lipofectamine-plus. On the following day, cells were left untreated or stimulated for 8 hr with 1 μg/ml ecdysone to induce expression of HDx1. […] Luciferase activity was measured by addition of the substrate (Promega, Madison, Wis.) to equal amounts of protein from each sample. […] All gene reporter assays were corrected for transfection efficiency by normalizing the units if β-gal in the extracts, using the β-gal assay (Invitrogen). β-gal values from the samples were divided by the β-gal value from control, 25polyQ, noninduced PC12 cells (no expression of HDx1) and multiplied by each corresponding luciferase reading. […]
Gene Reporter and transfections. […] Protein concentration was determined by the BCA method (Pierce, Rockford, Ill.). […] Bound p65 was detected with a goat anti-rabbit antibody conjugated to horseradish peroxidase. […]

[2] = tested on: PC12 cells expressing mutant HDx1; experiment: Mutant HDx1 toxicity in PC12 cells treated with IKK inhibitor; assay type: cell-based; details: Example 5
Method: To examine the effects of a small molecule IKK inhibitor on mutant Htt toxicity, PC12 cells expressing mutant HDx1 are treated with herbimycin or another known IKK inhibitor plus β-gal and NF-κB reporter in six-well plates, essentially as described above in Example 4.

striatal MSNs = experiment: Brain slice neurodegeneration assay (biolistic transfection of MSNs with HDx1); assay type: cell-based; details: P7 rat brain slices; for effect on MSNs expressing WT HDx1: coexpression with WT HDx1; for neurodegeneration / toxicity of mutant HDx1 in MSNs: coexpression with mutant HDx1, 7 d
Method: Brain slice preparation. All animal experiments were performed in accordance with the Institutional Animal Care and Use Committee and Duke University Medical Center Animal Guidelines. Postnatal day 7 (P7) CD Sprague Dawley rats (Charles River Laboratory, Raleigh, N.C.) were decapitated, and the brains were surgically removed and placed in ice-cold Neurobasal medium (Invitrogen). The tissue was fixed to a chilled, stainless steel Vibratome stage using cyanoacrylate glue (Krazy-Glue) and covered with Neurobasal medium. Coronal brain slices (250 μm thick) were cut by Vibratome (VT1000S; Leica, Nusslock Germany) as described previously (Edgerton and Reinhart, 2003). Brain slices were kept at 37° C. in 5.0% CO2 for 1 hr.
Bolistic transfection. Gold particles (1.6 μm gold microcarriers; BioRad, Hercules, Calif.) were used as DNA carriers for transfection as described previously (Lo et al., 1994). Briefly, gold particles were sonicated in 0.05 M spermidine in the presence of plasmid DNA. The gold-DNA mixture was washed three times in 100% ethanol before being loaded into Helios plastic cartridges (Bio-Rad) according to manufacturer's instructions. Slices were transfected using a Bio-Rad Helios gun with a cyan fluorescent protein (CFP)-tagged Htt fragment, together with yellow fluorescent protein (YFP) as a morphometric marker. In a number of experiments, one of the IKKγ constructs was also cotransfected with the Htt-construct and YFP. CFP-tagged Htt fragments were exon-1-N-terminal fragments containing either a short-Q (Q23) or a long-Q (Q148) polyQ domain.
Brain slice neurodegeneration assay. For each condition, transfections were performed on […] brain slices per experiment. Protein expression and neurodegeneration (loss of processes, shriveling of the soma) were assay 2-7 d after transfection using a Leica fluorescence microscope with appropriate filters for YFP and CFP. The total area of the striatum was identified, and transfected MSNs were identified by their morphology. CFP fluorescence was used to determine expression of Htt fragments and their aggregation into macro-inclusions. Each experiment involved three to twelve transfected brain slices per condition, and the data are means from six independent experiments for each condition.

HEK-293 cells [3] = experiment: Mutant HDx1 toxicity in transfected HEK-293 cells (count of condensed GFP-positive bodies); assay type: cell-based, Human; details: 48 hr after transfection
Method: (§1) Transfection of HEK-293 cells with mutant HDx1-EGFP alone (Kasantsev et al., 1999) or with one of the following constructs, full-length (F), DN, and deleted C terminus (DC) of IKKγ (provided by Dr. E. Zandi, University of Southern California) Rothwarf et al., 1998) or ΔF-βTrCP, was done using lipofectamine-plus reagents (Invitrogen). For histochemistry, cultured cells were fixed in 4% paraformaldehyde for 30 min, permeabilized with 70% methanol for 1 hr., and washed with PBS. Cells were stained with anti-HA for IKKγ or anti-myc for ΔF-βTrCP (Cell Signaling, Beverly, Mass.) followed by a goat anti-mouse antibody conjugated by Alexa 594 (Molecular Probes, Eugene, Oreg.). Toto-3, a dimeric cyanine, was used to stain nuclei (Molecular Probes). […] Mutant HDx1 toxicity was assessed by counting the number of condensed GFP-positive bodies, which are remnants of […] deoxynucleotidyl transferase-mediated biotinylated UTP nick endlabeling (TUNEL)-positive (TUNEL^+) cells (Khoshnan et al., 2002), using a florescence microscope. […] Apoptotic cells were labeled with terminal deoxynucleotidyl transferase using digoxigenin-labeled nucleotides and detected by anti-digoxigenin antibody and rhodamine-conjugated secondary according to the instructions provided by the manufacturer (Chemicon, Temecula, Calif.).

mutant HDx1 = experiment: Confocal examination of mutant HDx1 aggregation in HEK-293 cells; assay type: cell-based, Human; details: early time point before widespread toxicity
Method: as §1

GST-HDx1 = biological target: T2, GST-HDx1 (Homo sapiens, UniProt P42858, INS38QQQQQQQQQQQQQQQQQQQQQQQQQQQQQQ); experiment: GST pull-down binding of in vitro-translated IKKγ constructs to GST-HDx1; details: [35S] methionine-labeled construct, GST-HDx1 with expanded polyQ
T2 construct: GST-HDx1 with 20 or 51 polyQs, with and without polyproline domains, was obtained from Dr. E. Wanker; made in house; host or cells: Escherichia coli
Method: Protein-protein interaction. In vitro binding of IKKγ to mutant HDx1 was performed using glutathione S-transferase (GST)-pull down assays. GST-HDx1 with 20 or 51 polyQs, with and without polyproline domains, was obtained from Dr. E. Wanker (Max Plank Institute, Berlin, Germany). These constructs were expressed in Escherichia coli and purified with glutathione beads (Amersham Biosciences, Piscataway, N.J.) according to manufacturer's instructions. IKKγ constructs were transcribed and translated in rabbit reticulocytes in the presence of [^35S] methionine (Promega). Briefly, 5 μg of GST-HDx1 bound to beads was incubated with 10 μl of each labeled in vitro-translated IKKγ produce in 500 μl of Tris-based buffer containing 10% glycerol and 6 mM DTT and rocked at room temperature for 2 hr. Beads were washed five times in the same buffer. Bound IKKγ was examined by SDS-PAGE, followed by autoradiography. Recombinant anti-HDx1 intrabodies (Khoshnan et al., 2002) were expressed and examined similarly from binding to GST-HDx1. For competition assays, 10-fold excess in vitro-translated intrabodies were added to GST-HDx1 plus deleted C terminus IKKγ and processed as above.

HEK-293 cells [4] = experiment: TUNEL staining of HEK-293 cells transfected with mutant HDx1; assay type: cell-based, Human; details: HEK-293 cells cotransfected with mutant HDx1
Method: as §1

T2 sequence (P42858 with tags, fused parts or gaps with the stated changes): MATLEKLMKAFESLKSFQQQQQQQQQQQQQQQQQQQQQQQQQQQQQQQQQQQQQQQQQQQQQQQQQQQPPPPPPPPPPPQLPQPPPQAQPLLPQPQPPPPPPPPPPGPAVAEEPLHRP

Row | Molecule | NF-κB activation (IKKβ subunit) | NF-κB expression ([1]; PC12 cells expressing mutant HDx1, Example 5) | toxicity of mutant HDx1 in cultured cells [2] | effect on MSNs expressing WT HDx1 (striatal MSNs) | neurodegeneration / toxicity of mutant HDx1 in MSNs (striatal MSNs) | toxicity of mutant HDx1 (condensed GFP+ bodies) (HEK-293 cells [3]) | aggregation of mutant HDx1 (mutant HDx1) | binding of IKKγ construct to HDx1 (GST-HDx1) | number of TUNEL+ cells (HEK-293 cells [4]) | mutant HDx1-induced NF-κB-dependent gene expression ([1]; PC12 cells, ecdysone-induced HDx1, with or without NGF)
1 | CO[C@H]1[C@@H](OC)C[C@H](C)[C@@H](OC)C2=CC(=O)C=C(NC(=O)/C(C)=C/C=C\[C@H](OC)[C@@H](OC(N)=O)/C(C)=C/[C@@H]1C)C2=O [Herbimycin, Herbimycin A] | abrogates NF-κB activation | reduce NF-κB expression | blocks the toxicity | – | – | – | – | – | – | –
2 | IKKγ: full-length regulatory subunit of the IKK complex, expressed from a construct | – | – | – | no obvious effect | no significant effect on neurodegeneration | little effect on toxicity | promotes aggregation of mutant HDx1 | – | – | –
3 | WT-βTrCP: wild-type E3-ubiquitin ligase βTrCP | – | – | – | – | does not influence the toxicity of mutant HDx1 in MSNs | – | – | – | – | –
4 | B1 | – | – | – | no obvious effect | significantly neuroprotective | strongly reduces the toxicity of mutant HDx1 | no apparent effect on HDx1 aggregation | diminishes binding to HDx1 | significantly reduced | blocks basal and NGF-induced NF-κB-dependent gene expression
